Test results from paper PMC3936774.
Read-outs that look alike come from different tables or passages of the source.

How the values were obtained:
Ec Hfq F11W [1] = target: T1, Ec Hfq F11W (Escherichia coli, UniProt P0A6X3 1-102, F11W); experiment: Trp fluorescence quenching
Ec Hfq Q33W = Ec Hfq Q33W (Escherichia coli, UniProt P0A6X3 1-102, Q33W); experiment: Trp fluorescence quenching
Ec Hfq R17W [2] = target: T2, Ec Hfq R17W (Escherichia coli, UniProt P0A6X3 1-102, R17W); experiment: Trp fluorescence quenching
Ec Hfq F42W [3] = target: T3, Ec Hfq F42W (Escherichia coli, UniProt P0A6X3 1-102, F42W); experiment: Trp fluorescence quenching
Ec Hfq Y83W [4] = target: T4, Ec Hfq Y83W (Escherichia coli, UniProt P0A6X3 1-102, Y83W); experiment: Trp fluorescence quenching
Sa Hfq F25W = Sa Hfq F25W (Staphylococcus aureus, UniProt A0A0H3JV59 1-77, F25W); experiment: Trp fluorescence quenching
Sa Hfq Q31W = Sa Hfq Q31W (Staphylococcus aureus, UniProt A0A0H3JV59 1-77, Q31W); experiment: Trp fluorescence quenching
Lm Hfq F43W = target: T5, Lm Hfq F43W (Listeria monocytogenes, UniProt Q92C58 1-77, F43W); experiment: Trp fluorescence quenching
T5 sequence: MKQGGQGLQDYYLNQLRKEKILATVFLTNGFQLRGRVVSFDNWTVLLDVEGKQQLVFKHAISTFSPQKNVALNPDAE

Hfq WT = Hfq WT (Escherichia coli, UniProt P0A6X3 1-102); experiment: fluorescence polarization
Ec Hfq Y25W = Ec Hfq Y25W (Escherichia coli, UniProt P0A6X3 1-102, Y25W); experiment: Trp fluorescence quenching
Ec Hfq F39W [5] = target: T6, Ec Hfq F39W (Escherichia coli, UniProt P0A6X3 1-102, F39W); experiment: fluorescence polarization
Ec Hfq K31W = Ec Hfq K31W (Escherichia coli, UniProt P0A6X3 1-102, K31W); experiment: fluorescence polarization
Ec Hfq R17W [6] = target: T2, Ec Hfq R17W; experiment: fluorescence polarization
Ec Hfq F11W [7] = target: T1, Ec Hfq F11W; experiment: fluorescence polarization
Ec Hfq F42W [8] = target: T3, Ec Hfq F42W; experiment: fluorescence polarization
Ec Hfq G77W [9] = target: T7, Ec Hfq G77W (Escherichia coli, UniProt P0A6X3 1-102, G77W); experiment: fluorescence polarization
Ec Hfq Y83W [10] = target: T4, Ec Hfq Y83W; experiment: fluorescence polarization
Ec Hfq Q95W = Ec Hfq Q95W (Escherichia coli, UniProt P0A6X3 1-102, Q95W); experiment: fluorescence polarization
Ec Hfq F39W [11] = target: T6, Ec Hfq F39W; experiment: Trp fluorescence quenching
Ec Hfq G77W [12] = target: T7, Ec Hfq G77W; experiment: Trp fluorescence quenching
Ec Hfq Y83W [13] = target: T4, Ec Hfq Y83W; experiment: Trp fluorescence quenching; remark: listed apart in the source

B1: (AAG)5 (ssRNA)
RNA: AAGAAGAAGAAGAAG
B1: binds (Ec Hfq F11W [1]); binds (Ec Hfq Q33W).

B2: hfq 5'-UTR (64 nt) (structured_RNA)
RNA: GGAUUUUUUCAGAAUCGAAAGGUUCAAAGUACAAAUAAGCAUAUAAGGAAAAGAGAGAAUGGGAUC
B2: binds (Ec Hfq R17W [2]); binds (Ec Hfq F42W [3]); binds (Ec Hfq Q33W).

B3: (GGA)5 (ssRNA)
RNA: GGAGGAGGAGGAGGA
B3: binds (Ec Hfq Y83W [4]); binds (Ec Hfq F42W [3]).

B4: (AC)3A (ssRNA)
RNA: ACACACA
B4: binds (Sa Hfq F25W); binds (Sa Hfq Q31W).

B5: U6 (ssRNA)
RNA: UUUUUU
B5: binds (Ec Hfq F42W [3]); binds (Lm Hfq F43W).

B6: U16 (fluorescein) (ssRNA)
RNA: UUUUUUUUUUUUUUUU
B6 gave a Kd (Hfq WT) of 6.6 nM.

B7: A15 (ssRNA)
RNA: AAAAAAAAAAAAAAA
B7: binds (Ec Hfq Y25W); binds (Sa Hfq F25W); binds (Sa Hfq Q31W). B7: binds (Ec Hfq Q33W).

B8: A15 (fluorescein) (ssRNA)
RNA: AAAAAAAAAAAAAAA
Work on B8 yielded a Kd (Ec Hfq F39W [5]) of 0.59 ± 0.35 nM, a Kd (Ec Hfq K31W) of 1.4 ± 0.5 nM and a Kd (Ec Hfq R17W [6]) of 3.7 ± 1.5 nM. For the same binder, the Kd (Ec Hfq F11W [7]) was 7.1 ± 0.6 nM, the Kd (Ec Hfq F42W [8]) was 0.28 ± 0.09 nM and the Kd (Ec Hfq G77W [9]) was 2.9 ± 1.7 nM. It also gave a Kd (Ec Hfq Y83W [10]) of 7.4 ± 2.8 nM and a Kd (Ec Hfq Q95W) of 2.6 ± 1.1 nM.

B9: (GU)3G (ssRNA)
RNA: GUGUGUG
B9: binds (Lm Hfq F43W).

B10: (AU)3A (ssRNA)
RNA: AUAUAUA
B10: binds (Lm Hfq F43W); binds (Sa Hfq F25W); binds (Sa Hfq Q31W).

B11: hfq mRNA site A 24-mer (structured_RNA)
RNA: AUUUUUUCAGAAUCGAAAGGUUCA
B11: binds (Ec Hfq F39W [11]); binds (Ec Hfq G77W [12]); binds (Ec Hfq Q33W). B11: binds (Ec Hfq Y83W [13]).

B12: hfq mRNA site B 24-mer (ssRNA)
RNA: GCAUAUAAGGAAAAGAGAGAAUGG
B12: binds (Ec Hfq F39W [11]); binds (Ec Hfq F11W [1]); binds (Ec Hfq Y25W). B12: binds (Ec Hfq F42W [3]); binds (Ec Hfq Q33W); binds (Ec Hfq Y83W [13]).
